From publication PMC10397247
Each block holds one binder with its values, some of them ahead of it.

Key:
4H3041-bN = target: T1, 4H3041-bN; assay: two-hybrid library CCNG1;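 note: natural log of median RNA to DNA barcode read ratio; higher means stronger binding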
T1 chain: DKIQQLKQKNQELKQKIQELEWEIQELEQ

4H3297-bN = target: T2, 4H3297-bN; assay: two-hybrid library CCNG1;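 note: natural log of median RNA to DNA barcode read ratio; higher means stronger binding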
T2 chain: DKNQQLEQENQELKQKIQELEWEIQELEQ

4H3364-bN = target: T3, 4H3364-bN; assay: two-hybrid library CCNG1;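 note: natural log of median RNA to DNA barcode read ratio; higher means stronger binding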
T3 chain: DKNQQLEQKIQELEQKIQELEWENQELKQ

4H3381-bN = target: T4, 4H3381-bN; assay: two-hybrid library CCNG1;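 note: natural log of median RNA to DNA barcode read ratio; higher means stronger binding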
T4 chain: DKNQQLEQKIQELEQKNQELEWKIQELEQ

4H349-bN = target: T5, 4H349-bN; assay: two-hybrid library CCNG1;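 note: natural log of median RNA to DNA barcode read ratio; higher means stronger binding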
T5 chain: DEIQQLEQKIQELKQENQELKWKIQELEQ

4H56-bN = target: T6, 4H56-bN; assay: two-hybrid library CCNG1;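 note: natural log of median RNA to DNA barcode read ratio; higher means stronger binding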
T6 chain: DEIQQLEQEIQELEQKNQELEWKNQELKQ

4H730-bN = target: T7, 4H730-bN; assay: two-hybrid library CCNG1
T7 chain: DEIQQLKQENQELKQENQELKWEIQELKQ

4H796-bN = target: T8, 4H796-bN; assay: two-hybrid library CCNG1
T8 chain: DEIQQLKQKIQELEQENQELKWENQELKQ

4H932-bN = target: T9, 4H932-bN; assay: two-hybrid library CCNG1
T9 chain: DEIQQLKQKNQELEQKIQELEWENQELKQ

4H949-bN = target: T10, 4H949-bN; assay: two-hybrid library CCNG1
T10 chain: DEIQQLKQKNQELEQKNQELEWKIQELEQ

P1bHq = target: T11, P1bHq; assay: two-hybrid library CCNG1
T11 chain: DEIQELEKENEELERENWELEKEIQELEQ

4H3601-bH = target: T12, 4H3601-bH; assay: two-hybrid library CCNG1
T12 chain: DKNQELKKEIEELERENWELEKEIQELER

4H3907-bH = target: T13, 4H3907-bH; assay: two-hybrid library CCNG1
T13 chain: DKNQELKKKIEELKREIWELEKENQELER

4H4038-bH = target: T14, 4H4038-bH; assay: two-hybrid library CCNG1
T14 chain: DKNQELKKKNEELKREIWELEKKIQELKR

4H797-bH = target: T15, 4H797-bH; assay: two-hybrid library CCNG1
T15 chain: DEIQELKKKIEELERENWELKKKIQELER

4H932-bA = target: T16, 4H932-bA; assay: two-hybrid library CCNG1
T16 chain: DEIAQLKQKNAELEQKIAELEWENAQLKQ

4H949-bA = target: T17, 4H949-bA; assay: two-hybrid library CCNG1
T17 chain: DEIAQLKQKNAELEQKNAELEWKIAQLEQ

4H2504-AA = target: T18, 4H2504-AA; assay: two-hybrid library CCmax
T18 chain: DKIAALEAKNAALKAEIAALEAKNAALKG

4H2592-AA = target: T19, 4H2592-AA; assay: two-hybrid library CCmax
T19 chain: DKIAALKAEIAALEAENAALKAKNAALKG

4H2611-AA = target: T20, 4H2611-AA; assay: two-hybrid library CCmax; conditions: mean of both orientations
T20 chain: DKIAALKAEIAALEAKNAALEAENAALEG

4H2774-AA = target: T21, 4H2774-AA; assay: two-hybrid library CCmax; conditions: mean of both orientations
T21 chain: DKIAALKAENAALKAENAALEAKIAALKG

4H3001-AA = target: T22, 4H3001-AA; assay: two-hybrid library CCmax; conditions: mean of both orientations
T22 chain: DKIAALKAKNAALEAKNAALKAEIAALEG

4H3340-AA = target: T23, 4H3340-AA; assay: two-hybrid library CCmax
T23 chain: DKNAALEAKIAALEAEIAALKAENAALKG

4H3381-AA = target: T24, 4H3381-AA; assay: two-hybrid library CCmax; conditions: mean of both orientations
T24 chain: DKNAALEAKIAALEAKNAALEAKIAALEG

4H347-AA = target: T25, 4H347-AA; assay: two-hybrid library CCmax; conditions: mean of both orientations
T25 chain: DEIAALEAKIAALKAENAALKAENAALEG

4H3493-AA = target: T26, 4H3493-AA; assay: two-hybrid library CCmax; conditions: mean of both orientations
T26 chain: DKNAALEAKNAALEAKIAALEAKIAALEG

4H376-AA = target: T27, 4H376-AA; assay: two-hybrid library CCmax; conditions: mean of both orientations
T27 chain: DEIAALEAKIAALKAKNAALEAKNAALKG

4H406-AA = target: T28, 4H406-AA; assay: two-hybrid library CCmax; conditions: mean of both orientations
T28 chain: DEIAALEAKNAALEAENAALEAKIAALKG

4H688-AA = target: T29, 4H688-AA; assay: two-hybrid library CCmax; conditions: mean of both orientations
T29 chain: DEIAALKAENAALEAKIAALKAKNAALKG

4H963-AA = target: T30, 4H963-AA; assay: two-hybrid library CCmax; conditions: mean of both orientations
T30 chain: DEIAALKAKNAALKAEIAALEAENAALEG

4H72-bN = target: T31, 4H72-bN; assay: two-hybrid library CCNG1
T31 chain: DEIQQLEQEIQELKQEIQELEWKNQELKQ

4H754-bN = target: T32, 4H754-bN; assay: two-hybrid library CCNG1
T32 chain: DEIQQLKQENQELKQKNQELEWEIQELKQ

4H797-bN = target: T33, 4H797-bN; assay: two-hybrid library CCNG1
T33 chain: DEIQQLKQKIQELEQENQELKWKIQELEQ

4H883-bN = target: T34, 4H883-bN; assay: two-hybrid library CCNG1
T34 chain: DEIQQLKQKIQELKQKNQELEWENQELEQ

4H908-bN = target: T35, 4H908-bN; assay: two-hybrid library CCNG1
T35 chain: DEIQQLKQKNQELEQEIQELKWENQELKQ

4H918-bN = target: T36, 4H918-bN; assay: two-hybrid library CCNG1
T36 chain: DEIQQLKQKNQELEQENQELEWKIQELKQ

4H953-bN = target: T37, 4H953-bN; assay: two-hybrid library CCNG1
T37 chain: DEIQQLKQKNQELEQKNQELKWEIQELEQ

4H967-bN = target: T38, 4H967-bN; assay: two-hybrid library CCNG1
T38 chain: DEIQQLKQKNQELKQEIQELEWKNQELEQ

O13-bP = target: T39, O13-bP; assay: two-hybrid library CCNG1
T39 chain: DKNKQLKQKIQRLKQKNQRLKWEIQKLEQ

4H3601-bA = target: T40, 4H3601-bA; assay: two-hybrid library CCNG1
T40 chain: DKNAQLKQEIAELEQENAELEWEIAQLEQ

4H3907-bA = target: T41, 4H3907-bA; assay: two-hybrid library CCNG1
T41 chain: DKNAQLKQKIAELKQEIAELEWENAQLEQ

4H4038-bA = target: T42, 4H4038-bA; assay: two-hybrid library CCNG1
T42 chain: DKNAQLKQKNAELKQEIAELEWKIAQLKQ

4H1831-bA = target: T43, 4H1831-bA; assay: two-hybrid library CCNG1
T43 chain: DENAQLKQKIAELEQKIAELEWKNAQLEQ

4H2586-bA = target: T44, 4H2586-bA; assay: two-hybrid library CCNG1
T44 chain: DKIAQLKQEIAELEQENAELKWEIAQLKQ

4H2627-bA = target: T45, 4H2627-bA; assay: two-hybrid library CCNG1
T45 chain: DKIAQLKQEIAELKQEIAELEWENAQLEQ

4H2673-bA = target: T46, 4H2673-bA; assay: two-hybrid library CCNG1
T46 chain: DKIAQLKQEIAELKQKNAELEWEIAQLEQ

4H2697-bA = target: T47, 4H2697-bA; assay: two-hybrid library CCNG1
T47 chain: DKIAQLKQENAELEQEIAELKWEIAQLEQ

4H2702-bA = target: T48, 4H2702-bA; assay: two-hybrid library CCNG1
T48 chain: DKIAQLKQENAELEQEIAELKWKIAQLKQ

4H3010-bA = target: T49, 4H3010-bA; assay: two-hybrid library CCNG1
T49 chain: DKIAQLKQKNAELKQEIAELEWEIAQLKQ

4H3112-bA = target: T50, 4H3112-bA; assay: two-hybrid library CCNG1
T50 chain: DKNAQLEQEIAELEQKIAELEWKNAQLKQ

4H3112-bH = target: T51, 4H3112-bH; assay: two-hybrid library CCNG1
T51 chain: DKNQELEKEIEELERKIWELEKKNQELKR

4H3427-bA = target: T52, 4H3427-bA; assay: two-hybrid library CCNG1
T52 chain: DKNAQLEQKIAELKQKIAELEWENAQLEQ

4H346-bA = target: T53, 4H346-bA; assay: two-hybrid library CCNG1
T53 chain: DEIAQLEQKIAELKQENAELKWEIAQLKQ

4H3926-bA = target: T54, 4H3926-bA; assay: two-hybrid library CCNG1
T54 chain: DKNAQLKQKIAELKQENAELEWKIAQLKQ

4H4073-bA = target: T55, 4H4073-bA; assay: two-hybrid library CCNG1
T55 chain: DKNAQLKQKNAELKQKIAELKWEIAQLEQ

4H457-bA = target: T56, 4H457-bA; assay: two-hybrid library CCNG1
T56 chain: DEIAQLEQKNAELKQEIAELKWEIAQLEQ

4H575-bA = target: T57, 4H575-bA; assay: two-hybrid library CCNG1
T57 chain: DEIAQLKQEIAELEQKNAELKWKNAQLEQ

4H683-bA = target: T58, 4H683-bA; assay: two-hybrid library CCNG1
T58 chain: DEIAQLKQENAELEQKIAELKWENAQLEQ

4H754-bA = target: T59, 4H754-bA; assay: two-hybrid library CCNG1
T59 chain: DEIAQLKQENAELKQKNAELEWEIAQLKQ

4H780-bA = target: T60, 4H780-bA; assay: two-hybrid library CCNG1
T60 chain: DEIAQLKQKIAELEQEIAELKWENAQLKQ

4H797-bA = target: T61, 4H797-bA; assay: two-hybrid library CCNG1
T61 chain: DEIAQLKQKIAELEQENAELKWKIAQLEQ

4H855-bA = target: T62, 4H855-bA; assay: two-hybrid library CCNG1
T62 chain: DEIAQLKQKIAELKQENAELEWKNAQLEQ

4H918-bA = target: T63, 4H918-bA; assay: two-hybrid library CCNG1
T63 chain: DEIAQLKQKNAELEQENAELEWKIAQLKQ

4H953-bA = target: T64, 4H953-bA; assay: two-hybrid library CCNG1
T64 chain: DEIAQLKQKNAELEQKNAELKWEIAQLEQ

4H968-bA = target: T65, 4H968-bA; assay: two-hybrid library CCNG1
T65 chain: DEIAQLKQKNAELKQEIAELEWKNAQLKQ

interaction score (4H3041-bN): 0.754
interaction score (4H3297-bN): -2.23
interaction score (4H3364-bN): -1.42
interaction score (4H3381-bN): -1.06
interaction score (4H349-bN): -1.54
interaction score (4H56-bN): -0.997
interaction score (4H730-bN): -1.37
interaction score (4H796-bN): -1.35
interaction score (4H932-bN): -1.42
interaction score (4H949-bN): -1.33
interaction score (P1bHq): 0.154
B1: 4H3041-bN (peptide)
chain: DKIQQLKQKNQELKQKIQELEWEIQELEQ

interaction score (4H3601-bH): -1.34
interaction score (4H3907-bH): -0.759
interaction score (4H4038-bH): -1.44
interaction score (4H797-bH): -1.38
B2: 4H3601-bH (peptide)
chain: DKNQELKKEIEELERENWELEKEIQELER

interaction score (4H932-bA): 0.694
interaction score (4H949-bA): -0.925
interaction score (P1bHq): -0.886
B3: 4H932-bA (peptide)
chain: DEIAQLKQKNAELEQKIAELEWENAQLKQ

interaction score (4H2504-AA): -0.729
interaction score (4H2592-AA): -1.07
interaction score (4H2611-AA): -2.59
interaction score (4H2774-AA): -1.42
interaction score (4H3001-AA): -1.38
interaction score (4H3340-AA): -1.51
interaction score (4H3381-AA): -0.947
interaction score (4H347-AA): -1.77
interaction score (4H3493-AA): -1.14
interaction score (4H376-AA): -1.78
interaction score (4H406-AA): 0.644
interaction score (4H688-AA): 0.978
interaction score (4H963-AA): -0.737
B4: 4H2504-AA (peptide)
chain: DKIAALEAKNAALKAEIAALEAKNAALKG

interaction score (4H72-bN): 0.334
interaction score (4H754-bN): -1.48
interaction score (4H797-bN): 0.632
interaction score (4H883-bN): 0.619
interaction score (4H908-bN): -0.234
interaction score (4H918-bN): 0.713
interaction score (4H953-bN): -0.727
interaction score (4H967-bN): -0.25
interaction score (O13-bP): -0.283
B5: 4H72-bN (peptide)
chain: DEIQQLEQEIQELKQEIQELEWKNQELKQ

interaction score (4H3601-bA): -0.859
interaction score (4H3907-bA): -1.15
interaction score (4H4038-bA): -1.28
B6: 4H3601-bA (peptide)
chain: DKNAQLKQEIAELEQENAELEWEIAQLEQ

interaction score (4H1831-bA): 0.937
interaction score (4H2586-bA): -0.446
interaction score (4H2627-bA): 1.11
interaction score (4H2673-bA): 0.133
interaction score (4H2697-bA): -1.55
interaction score (4H2702-bA): -0.589
interaction score (4H3010-bA): 0.376
interaction score (4H3112-bA): 0.716
interaction score (4H3112-bH): -0.386
interaction score (4H3427-bA): 0.113
interaction score (4H346-bA): -0.307
interaction score (4H3926-bA): -0.904
interaction score (4H4073-bA): -0.475
interaction score (4H457-bA): -0.519
interaction score (4H575-bA): -0.581
interaction score (4H683-bA): -1.5
interaction score (4H754-bA): -0.649
interaction score (4H780-bA): -1.1
interaction score (4H797-bA): -0.44
interaction score (4H855-bA): 0.246
interaction score (4H918-bA): -0.817
interaction score (4H953-bA): -0.824
interaction score (4H968-bA): -0.46
B7: 4H1831-bA (peptide)
chain: DENAQLKQKIAELEQKIAELEWKNAQLEQ
